Paper PMC13291817

Tests used:
[1] = target: RGH2-Exo70 domain (residues 1033-1637), purified from E. coli (barley (Hordeum vulgare)); assay: ITC; MicroCal PEAQ-ITC; […]; 25 °C; 20 mM HEPES pH 7.5, 150 mM NaCl, 5% glycerol; […]
[2] = target: RGH2^+-Exo70 domain (residues 1033-1637), purified from E. coli (barley (Hordeum vulgare)); assay: as above

AVR-Pii^Rb, purified from E. coli (natural protein)
Kd [1]: 15 µM | Kd [2]: 3.12 µM
